Patent US8492147B2, “Method of inducing the differentiation of embryonic stem cells into nerve by serum-free suspension culture” (Riken, priority 2004, dated 2013)

Key:
[1] = tested on: Mouse ES cells (EB5 cells); assay: SFEB culture with retinoic acid, Bf1+ cells and RT-PCR of rostral/caudal markers; format: cell-based; settings: RA 0.2 μM after 3-5 days of the culture
Procedure: Specifically, As ES cells, those cultured for maintenance by conventional culture method without feeder cells supplemented with 1% fetal calf serum, 10% KSR (Knockout Serum Replacement), and LIF were used for SFEB method (see, Neuron, Vol. 28: 31-40 (2000)). Next, after ES cell colonies were subjected to trypsin/EDTA treatment to make single cells, 10 ml of the cells (6×10^4 cells/ml) were seeded on cell non-adhesive culture plastic plate (diameter: 10 cm), and incubated at 37° C., 5% CO2 for five days. As medium, differentiation medium composed of 500 ml of GMEM, 5 ml of 100×NEAA, 5 ml of 100×pyruvate, and 0.5 ml of 1×10^−1 M 2-mercaptoethanol, and 5% KSR (Knockout Serum Replacement). […]
Mouse ES cells (EB5 cells) were subjected to serum-free floating culture by the SFEB method in the same manner as Example 1 for 5 days, after which they were dispersed by trypsin/EDTA treatment, seeded to a cell culture slide coated with poly-D lysine/laminin, and cultured in a differentiation medium (as described above) for 2 days, and then in a GMEM+N2 medium (composition: GMEM+1×N-2 Supplement (manufactured by Gibco, a supply of ×100 concentration was used after dilution), 0.1 mM non-essential amino acid, 1 mM sodium pyruvate, 0.1 mM 2-mercaptoethanol) for 3 days. The finally obtained differentiated cells were analyzed by the fluorescent antibody method using anti-Bf1 antibody. […]

ES cells [2] = assay: SDIA method on PA6 cells with BMP4, Math1 and cerebellar granule cell markers; format: cell-based
From the text: Although there have been no reports on differentiation induction of ES cells into cerebellar tissue, the present inventors have already reported that Math1 is induced by treating neurons differentiated by the SDIA method with BMP4 (see Proc. Natl. Acad. Sci. USA, 100, 5828-5833). […] Therefore, the Math1-positive cells induced by the SDIA method were postulated not to be cerebellar granule cells, but to be Math1-positive cells of the pons, medulla oblongata, spinal cord and the like.

ES cells [3] = assay: BMP treatment of ES cells cultured by SFEB method; format: cell-based
From the text: (§1) It is interesting to elucidate what kinds of signaling regulate this difference by analyzing RNA profile for them.

ES cells [4] = assay: BMP treatment of ES cells cultured on collagen-coated dish; format: cell-based; settings: BMP treatment (5 nM)
From the text: as §1

Sox1/GFP-mES cells = assay: SFEB serum-free floating culture of Sox1/GFP-mES cells, frequency of Sox1-GFP+ cells (FACS); format: cell-based, mouse; settings: for experiment-to-experiment variation of GFP expression value: initial cell density 5×10^4 cell/ml, without addition varied by about 10-15%
Procedure: Specifically, As ES cells, those cultured for maintenance by conventional culture method without feeder cells supplemented with 1% fetal calf serum, 10% KSR (Knockout Serum Replacement), and LIF were used for SFEB method (see, Neuron, Vol. 28: 31-40 (2000)). Next, after ES cell colonies were subjected to trypsin/EDTA treatment to make single cells, 10 ml of the cells (6×10^4 cells/ml) were seeded on cell non-adhesive culture plastic plate (diameter: 10 cm), and incubated at 37° C., 5% CO2 for five days. As medium, differentiation medium composed of 500 ml of GMEM, 5 ml of 100×NEAA, 5 ml of 100×pyruvate, and 0.5 ml of 1×10^−1 M 2-mercaptoethanol, and 5% KSR (Knockout Serum Replacement).
Next, For quantitative analysis, mouse ES cells wherein GFP (green fluorescent protein) was knocked in the nerve marker Sox1 gene by homologous recombination (hereinafter abbreviated as Sox1/GFP-mES cells as required; see Nature Biotechnology Vol. 21: 183-186 (2003)) were cultured by the SFEB method. The culture conditions were the same as those for the SFEB method described in 1.1. above except that Sox1/GFP-mES cells were used as the ES cells.
Next, to further improve the efficiency of differentiation into nervous system cells by the SFEB method, the present inventors attempted to determine whether or not the efficiency of differentiation into nervous system cells was improved by inhibiting Nodal, Wnt, and BMP, which are promoters of differentiation into mesodermal cells.
Next, we tested effects of Nodal and Wnt by adding Nodal protein (manufactured by R&D) and Wnt3a protein (manufactured by R&D) to SFEB culture.

ES cells [5] = assay: SFEB culture then adhesion culture with Wnt3a, dorsal/ventral telencephalon markers; format: cell-based, mouse
Procedure: Mouse ES cells (EB5 cells) were subjected to serum-free floating culture by the SFEB method in the same manner as Example 1 for 5 days, after which they were dispersed by trypsin/EDTA treatment, seeded to a cell culture slide coated with poly-D lysine/laminin, and cultured in a differentiation medium (as described above) for 2 days, and then in a GMEM+N2 medium (composition: GMEM+1×N-2 Supplement (manufactured by Gibco, a supply of ×100 concentration was used after dilution), 0.1 mM non-essential amino acid, 1 mM sodium pyruvate, 0.1 mM 2-mercaptoethanol) for 3 days. The finally obtained differentiated cells were analyzed by the fluorescent antibody method using anti-Bf1 antibody. For comparison, neural differentiation from ES cells was performed by the SDIA method, and the cells obtained were analyzed by the fluorescent antibody method in the same manner.
ES cells were cultured by the SFEB method in the same manner as Examples 4 and 6 for 5 days to induce neural differentiation, subsequently dispersed by trypsin/EDTA treatment, seeded to a cell culture slide coated with poly-D lysine/laminin, and cultured. […] In the case of 50 ng/ml Wnt3a, about 75% of the Bf1-positive cells expressed the dorsal marker Pax6, and about 10 percent of them expressed Emx1, a marker of cerebrocortical precursor cells.

EB5 cells = assay: SFEB culture, differentiation into retinal precursor cells (Rx, rhodopsin immunostaining); format: cell-based, mouse
Procedure: EB5 cells were subjected to serum-free floating culture by the SFEB method for 5 days, after which cell clamps as is were seeded to a cell culture slide coated with poly-D lysine/laminin/fibronectin, and cultured while in the KSR-containing differentiation medium for the SFEB method for a total of 8 days. Immunostaining was performed using an internally prepared antibody against Rx, a marker specific for retinal precursor cells; an Rx-positive cell population was identified in about 15-30% of the cell clamps (colonies). By treatment with 5% fetal calf serum or 100 ng/ml activin (manufactured by R&D) or treatment with 3-30 nM Shh during 3 to 5 days after the start of cultivation, the Rx positivity rate of colonies increased to 50% (about 2 times). […] Also, these cells were subjected to adhesion culture for a long time (a total of 14 to 18 days); a plurality of cells positive for the visual cell marker Crx or rhodopsin were identified in 1-5% of the colonies.

[6] = Nodal protein 5 μg/ml, Wnt3a protein 50 ng/ml, during days 0-5 and days 2-5
[7] = Wnt3a 5 ng/ml or 50 ng/ml from Day 6, total 10 days

In the case of `CC1=C(/C=C/C(C)=C/C=C/C(C)=C/C(=O)O)C(C)(C)CCC1` [RA, retinoic acid], the “Bf1+ cells” value [1] is reported as less than 1%.

For “BMP4: BMP signal promoter, manufactured by R&D”, the “Ki67 in the Math1-positive cells” value (ES cells [2]; 0.5-1 nM BMP4) was “negative”, the “expression of Pax6, Zic1 in the Math1-positive cells” value (ES cells [2]; 0.5-1 nM BMP4, most of these cells) was “did not express” and the neural differentiation (ES cells [3]) was “completely suppresses neural differentiation”. The cell type produced (ES cells [3]; not flk1+ cells) was “efficiently produces E-cad^+/Oct3/4^− cells” and the cell type produced (ES cells [4]) was “induces efficient differentiation into flk1^+ lateral plate mesoderm”.

B1: Lefty-A: anti-Nodal reagent (Nodal signal inhibitor), manufactured by R&D Company (protein, UniProt O00292 77-366, looked up)
Left-right determination …: RFSQSFREVAGRFLASEASTHLLVFGMEQRLPPNSELVQAVLRLFQEPVPKAALHRHGRLSPRSAQARVTVEWLRVRDDGSNRTSLIDSRLVSVHESGWKAFDVTEAVNFWQQLSRPRQPLLLQVSVQREHLGPLASGAHKLVRFASQGAPAGLGEPQLELHTLDLRDYGAQGDCDPEAPMTEGTRCCRQEMYIDLQGMKWAKNWVLEPPGFLAYECVGTCQQPPEALAFNWPFLGPRQCIASETASLPMIVSIKEGGRTRPQVVSLPNMRVQKCSCASDGALVPRRLQP
In the case of B1, the “frequency of Sox1-GFP+ cells” value (Sox1/GFP-mES cells; added on Day 0 of SFEB, 5 μg/ml Lefty-A, 1 μg/ml Dkk1, 1.5 μg/ml BMPRIA-Fc receptobody) is reported as “evaluate the frequency of Sox1-GFP^+ cells” and the “experiment-to-experiment variation of GFP expression value” (Sox1/GFP-mES cells) is reported as “stabilized the value of GFP expression”.

B2: Dkk1: anti-Wnt reagent (Wnt signal inhibitor), manufactured by R&D Company (protein, UniProt O94907 32-266, looked up)
Dickkopf-related protein 1: TLNSVLNSNAIKNLPPPLGGAAGHPGSAVSAAPGILYPGGNKYQTIDNYQPYPCAEDEECGTDEYCASPTRGGDAGVQICLACRKRRKRCMRHAMCCPGNYCKNGICVSSDQNHFRGEIEETITESFGNDHSTLDGYSRRTTLSSKMYHTKGQEGSVCLRSSDCASGLCCARHFWSKICKPVLKEGQVCTKHRRKGSHGLEIFQRCYCGEGLSCRIQKDHHQASNSSRLHTCQRH
With B2 the “experiment-to-experiment variation of GFP expression value” (Sox1/GFP-mES cells) was “stabilized the value of GFP expression”.

B3: Nodal protein: Nodal protein (manufactured by R&D), Nodal signal promoter (protein, UniProt Q96S42 238-347, looked up)
Nodal homolog: HHLPDRSQLCRKVKFQVDFNLIGWGSWIIYPKQYNAYRCEGECPNPVGEEFHPTNHAYIQSLLKRYQPHRVPSTCCAPVKTKPLSMLYVDNGRVLLDHHKDMIVEECGCL
With B3 the “frequency of Sox1-GFP+ cells” value (Sox1/GFP-mES cells; [6]) was “significantly suppress”.

B4: Wnt3a: Wnt3a protein (manufactured by R&D), Wnt signal promoter (protein, UniProt P56704 19-352, looked up)
Protein Wnt-3a: SYPIWWSLAVGPQYSSLGSQPILCASIPGLVPKQLRFCRNYVEIMPSVAEGIKIGIQECQHQFRGRRWNCTTVHDSLAIFGPVLDKATRESAFVHAIASAGVAFAVTRSCAEGTAAICGCSSRHQGSPGKGWKWGGCSEDIEFGGMVSREFADARENRPDARSAMNRHNNEAGRQAIASHMHLKCKCHGLSGSCEVKTCWWSQPDFRAIGDFLKDKYDSASEMVVEKHRESRGWVETLRPRYTYFKVPTERDLVYYEASPNFCEPNPETGSFGTRDRTCNVSSHGIDGCDLLCCGRGHNARAERRREKCRCVFHWCCYVSCQECTRVYDVHTCK
For B4, the “frequency of Sox1-GFP+ cells” value (Sox1/GFP-mES cells; [6]) was “significantly suppress”, the “Bf1-positive cells expressing Emx1” value (ES cells [5]; 50 ng/ml Wnt3a) was “about 10%” and the “Bf1-positive cells expressing dorsal marker Pax6” value (ES cells [5]; 50 ng/ml Wnt3a) was “about 75%”. The “number of cells positive for both NRx2.1 and Bf1 (ventral telencephalon markers)” value (ES cells [5]; [7]) was “decreased remarkably” and the “number of cells positive for both Pax6 and Bf1 (dorsal telencephalon markers)” value (ES cells [5]; [7]) was “increased”.

B5: activin: TGFβ family protein, Nodal signal promoter, manufactured by R&D (protein, UniProt P08476 311-426, looked up)
Inhibin beta A chain: GLECDGKVNICCKKQFFVSFKDIGWNDWIIAPSGYHANYCEGECPSHIAGTSGSSLSFHSTVINHYRMRGHSPFANLKSCCVPTKLRPMSMLYYDDGQNIIKKDIQNMIVEECGCS
modifications: Inhibin beta A chain activin A assumed
notes: TGFβ family protein, Nodal signal promoter, manufactured by R&D
B5 was tested, and the “Rx positivity rate of colonies” value (EB5 cells; 5% fetal calf serum or 100 ng/ml activin or 3-30 nM Shh during 3 to 5 days, total 8 days, without: about 15-30%) was 50% and the “increase of Rx positivity rate of colonies” value (EB5 cells; same treatments, versus no treatment) was “about 2 times”.
